These results are taken from patent EP2058006A1.

As usually defined, the IC50 is the concentration needed to halve the response being measured. Low values mean inhibition by little substance, high ones a need for much substance.

For assay [1], the target named is CC-chemokine receptor CCR5 on the cell surface (UniProt P51681).
Assay [2] has the same target. Briefly: cell-based or functional assay.
Assay [3] shares this target. Briefly: flow cytometry on PHA/IL-2-stimulated PBMC.
The target is the same in assay [4]. The assay can be described thus: flow cytometry on L1.2-CCR5+ cells, saturating mAb, PE anti-mouse IgG.
The target is the same in assay [5]. The assay can be described thus: flow cytometry on PHA/IL-2-stimulated PBMC, mean fluorescence intensity.

Sequence of UniProt P51681 (P51681 whole entry): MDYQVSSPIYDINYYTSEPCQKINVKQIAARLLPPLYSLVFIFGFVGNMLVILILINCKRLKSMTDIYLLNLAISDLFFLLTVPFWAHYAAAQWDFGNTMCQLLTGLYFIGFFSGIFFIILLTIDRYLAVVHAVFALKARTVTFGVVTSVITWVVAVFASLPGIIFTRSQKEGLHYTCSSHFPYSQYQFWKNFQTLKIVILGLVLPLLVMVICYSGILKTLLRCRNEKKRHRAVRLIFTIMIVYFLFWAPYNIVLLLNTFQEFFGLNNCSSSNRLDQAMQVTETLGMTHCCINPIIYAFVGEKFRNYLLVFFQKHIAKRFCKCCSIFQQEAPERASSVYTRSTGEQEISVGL

In turn, “anti-CCR5 mAb 2D7 (Pharmingen) (antibody)” returned a half-inhibitory concentration (IC50) in assay [1] of 1.38 µg/mL. In assay [2], the IC50, inhibition of JR-FL entry (luciferase reporter virus, U87MG-CD4+CCR5+ cells) was 0.026 µg/mL; the IC50, inhibition of cell-cell fusion (RET assay, PM1 and HeLa-EnvJR-FL+ cells) amounted to 1.6 µg/mL; the K (equal to the IC50), inhibition of cell-cell fusion, median effect fit (RET assay) worked out at 0.36 µg/mL. Besides, in assay [3], the % of PBMC stained is above 20%. Further, the % of L1.2-CCR5+ cells stained in assay [4] is above 90%.
In assay [1], “anti-CCR5 monoclonal antibody PA14 (ATCC Accession No. HB-12610)” came in with an IC50 of 1.58 µg/mL. Moreover, in assay [2], the IC50, inhibition of JR-FL entry (luciferase reporter virus, U87MG-CD4+CCR5+ cells) was 0.024 µg/mL; the IC50, inhibition of cell-cell fusion (RET assay, PM1 and HeLa-EnvJR-FL+ cells) was 1.7 µg/mL; the IC50 for inhibition of RANTES-induced calcium influx in L1.2-CCR5+ cells is 50 µg/mL; the ratio of the PA14 IC50 to the 2D7 IC50, RANTES-induced calcium influx stood at 8 fold. The substance also yielded a % of PBMC stained in assay [3] above 20%. The substance further yielded a % of L1.2-CCR5+ cells stained in assay [4] above 90%. Also, in assay [5], the fold difference in m.f.i. against PA9 is 7 fold.
